Experiment in all cases: EC50 of free RNA motif oligo competing protein binding to immobilised probe
For one series, the target named is T1, RBM7 (UniProt Q9Y580).
T1 sequence: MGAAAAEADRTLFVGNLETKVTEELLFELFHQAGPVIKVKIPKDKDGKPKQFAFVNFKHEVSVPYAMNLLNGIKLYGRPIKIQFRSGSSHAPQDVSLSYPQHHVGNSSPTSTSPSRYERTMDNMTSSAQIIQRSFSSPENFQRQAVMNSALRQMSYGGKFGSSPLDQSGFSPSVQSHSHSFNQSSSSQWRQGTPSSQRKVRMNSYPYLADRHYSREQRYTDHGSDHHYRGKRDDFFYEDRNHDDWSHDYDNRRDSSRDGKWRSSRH
In a few lines: (§1)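 HEK293-FT lysate (2.5 mg protein/well) was treated with free RNA oligos (0 nM to 30 μM) for 1 h at 4°C, then with the same oligos on NHS-Sepharose beads for 30 min at 4°C. Bound proteins were quantified by label-free LC-MS/MS relative to the control. EC50 came from a four-parameter log-logistic fit, and Kd is EC50 times a protein-dependent depletion factor.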

The target of the next series is T2, PATL1 (UniProt Q86TB9).
T2 sequence: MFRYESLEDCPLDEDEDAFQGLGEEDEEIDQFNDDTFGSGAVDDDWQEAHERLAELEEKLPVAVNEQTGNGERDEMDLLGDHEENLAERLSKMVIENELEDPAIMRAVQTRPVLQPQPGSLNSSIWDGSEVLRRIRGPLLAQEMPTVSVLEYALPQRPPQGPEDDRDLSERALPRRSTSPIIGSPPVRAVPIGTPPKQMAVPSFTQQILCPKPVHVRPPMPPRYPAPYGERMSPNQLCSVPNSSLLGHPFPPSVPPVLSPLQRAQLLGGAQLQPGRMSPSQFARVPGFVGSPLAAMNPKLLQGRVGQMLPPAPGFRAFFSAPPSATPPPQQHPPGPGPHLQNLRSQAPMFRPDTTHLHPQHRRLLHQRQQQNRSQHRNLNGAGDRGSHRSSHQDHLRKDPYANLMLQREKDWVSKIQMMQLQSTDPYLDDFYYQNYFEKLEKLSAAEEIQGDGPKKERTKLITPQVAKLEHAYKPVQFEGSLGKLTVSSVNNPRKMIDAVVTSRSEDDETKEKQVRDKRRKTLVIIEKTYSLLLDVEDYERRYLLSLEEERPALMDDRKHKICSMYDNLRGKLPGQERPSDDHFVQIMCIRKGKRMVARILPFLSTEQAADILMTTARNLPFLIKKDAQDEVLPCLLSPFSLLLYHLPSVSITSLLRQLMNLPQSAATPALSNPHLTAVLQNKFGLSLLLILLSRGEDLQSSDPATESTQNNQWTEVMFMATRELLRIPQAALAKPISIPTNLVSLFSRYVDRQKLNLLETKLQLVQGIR
In short, it runs like this:
as §1

For a further series, the target named is T3, CSTF1 (UniProt Q05048).
T3 sequence: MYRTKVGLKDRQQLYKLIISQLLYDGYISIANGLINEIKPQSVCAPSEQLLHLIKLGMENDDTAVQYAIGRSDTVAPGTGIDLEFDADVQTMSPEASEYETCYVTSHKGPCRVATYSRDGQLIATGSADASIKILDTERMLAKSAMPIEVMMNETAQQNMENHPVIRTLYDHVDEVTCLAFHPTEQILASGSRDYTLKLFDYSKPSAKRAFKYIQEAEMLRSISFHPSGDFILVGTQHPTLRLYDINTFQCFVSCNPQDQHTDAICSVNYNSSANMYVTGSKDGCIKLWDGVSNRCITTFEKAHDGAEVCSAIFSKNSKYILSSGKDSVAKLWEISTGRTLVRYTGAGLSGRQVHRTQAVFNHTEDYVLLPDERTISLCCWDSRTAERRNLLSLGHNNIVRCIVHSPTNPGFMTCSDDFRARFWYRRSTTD
In a few lines:
as §1

The target in the next series is T4, ISY1 (UniProt Q9ULR0).
T4 sequence: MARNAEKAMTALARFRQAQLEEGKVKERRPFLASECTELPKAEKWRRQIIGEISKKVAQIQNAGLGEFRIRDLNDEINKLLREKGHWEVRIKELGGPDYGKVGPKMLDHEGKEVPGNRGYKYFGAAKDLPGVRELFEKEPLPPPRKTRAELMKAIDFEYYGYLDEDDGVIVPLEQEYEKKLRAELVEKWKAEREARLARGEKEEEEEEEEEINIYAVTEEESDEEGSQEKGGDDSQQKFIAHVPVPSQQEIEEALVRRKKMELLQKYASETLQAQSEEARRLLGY
In a few lines:
as §1

Another series has as its target T5, CPSF2 (UniProt Q9P2I0).
T5 sequence: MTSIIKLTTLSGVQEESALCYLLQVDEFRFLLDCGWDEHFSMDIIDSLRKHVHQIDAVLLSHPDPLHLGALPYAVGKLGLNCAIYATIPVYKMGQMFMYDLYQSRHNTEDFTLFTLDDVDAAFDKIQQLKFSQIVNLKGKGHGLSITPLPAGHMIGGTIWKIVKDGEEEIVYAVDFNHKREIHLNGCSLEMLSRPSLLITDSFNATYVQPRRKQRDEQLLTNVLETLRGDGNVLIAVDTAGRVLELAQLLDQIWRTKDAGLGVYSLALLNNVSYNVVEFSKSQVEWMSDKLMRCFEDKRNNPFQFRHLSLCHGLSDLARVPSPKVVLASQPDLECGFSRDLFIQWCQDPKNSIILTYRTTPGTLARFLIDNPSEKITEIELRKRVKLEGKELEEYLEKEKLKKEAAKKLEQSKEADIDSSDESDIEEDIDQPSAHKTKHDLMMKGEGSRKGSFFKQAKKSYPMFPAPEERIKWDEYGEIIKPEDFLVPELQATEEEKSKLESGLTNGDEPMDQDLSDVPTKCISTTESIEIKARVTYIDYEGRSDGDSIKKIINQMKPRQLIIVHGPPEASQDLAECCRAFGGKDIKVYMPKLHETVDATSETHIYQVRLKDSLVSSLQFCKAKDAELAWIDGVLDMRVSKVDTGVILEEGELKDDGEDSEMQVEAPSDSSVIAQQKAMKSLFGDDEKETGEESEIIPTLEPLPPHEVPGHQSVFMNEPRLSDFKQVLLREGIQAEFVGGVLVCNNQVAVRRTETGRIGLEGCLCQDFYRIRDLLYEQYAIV
In a few lines: as §1

Usually EC50 stands for the concentration at which the effect is half-maximal.

As to AAUAAA, the EC50 in the series with RBM7 is 1930 nM; in the series with PATL1, 468 nM; in the series with CSTF1, 53.9 nM; with ISY1, 914 nM; in the series with CPSF2, 68.3 nM.

For UAUUUAU, the EC50 was 312 nM in the series with RBM7; 407 nM with PATL1; 574 nM with CSTF1; 724 nM with ISY1; 1510 nM in the series with CPSF2.
